Laboratory results taken from article PMC3145977, “Thermostabilisation of an Agonist-Bound Conformation of the Human Adenosine A2A Receptor” (Journal of Molecular Biology, 2011).

test system: [^3H]NECA-bound A2AR; test: Thermostability assay of detergent-solubilised receptor with [3H]NECA bound (ligand plus format); format: physicochemical, human; details: not given
Experimental: […]. After solubilisation in DDM, A2AR was bound to Ni^2+-NTA resin, washed to reduce the DDM concentration and then eluted (see Methods). […]. An aliquot of E. coli cells (14 mL) was thawed on ice and resupended in 500 μL of buffer A [50 mM Tris–HCl (pH 7.4), 0.4 M NaCl, 250 μg/mL lysozyme (Sigma) and 1 mg/mL DNase I (Sigma), supplemented with complete ethylenediaminetetraacetic acid (EDTA)-free Protease inhibitor cocktail (Roche)] and incubated for 1 h at 4 °C. Samples were then sonicated for 1 min at 4 °C using a cup-horn sonicator. The receptors were solubilised by adding 1% DDM and incubated for 1 h at 4 °C. Insoluble material was removed by centrifugation (5 min, 13,000g, 4 °C). The solubilised receptors were partially purified with Ni-NTA agarose (Qiagen). Agarose beads (300 μL) pre-equilibrated in buffer A were added to 700 μL of solubilised receptor. […].
The sample was incubated for 45 min at 4 °C, then 30 min at the specified temperature and then 30 min at 4 °C. Receptor-bound and free radioligands were separated as previously described on mini gel-filtration columns.[26] Receptor-bound ligands were transferred to a 96-well plate (PerkinElmer) and mixed with 200 μL of Optiphase supermix (PerkinElmer). The bound ^3H-labeled ligand was determined using a 1450 Microbeta Trilux counter (1 min per sample).
For all the thermostabilisation studies carried out in our laboratory, the apparent Tm is the temperature for which 50% of the solubilised receptor remains folded after 30 min of incubation. The rate constant of the protein denaturation is a function of the temperature, and consequently, thermal denaturation of a protein can be compared to a chemical reaction for which the rate of the reaction is dependant on the temperature. Arrhenius established that any chemical reaction is temperature dependant. […]. The reference measurement representing the total binding activity of the sample A0 was considered to be measured at 4 °C. From the graphical representation t = Log10(t1/2) (Fig. 2c), we could extract a half-life for each construct at any temperature to define the improvement in stability of the various mutants compared to WT A2AR.

Molecule	Apparent Tm in DDM, Single measurement
GL10: A2AR mutant L48A-Q89A (protein, UniProt P29274 1-412, looked up, variant L48A Q89A) Adenosine receptor A2a: MPIMGSSVYITVELAIAVLAILGNVLVCWAVWLNSNLQNVTNYFVVSAAAADIAVGVLAIPFAITISTGFCAACHGCLFIACFVLVLTASSIFSLLAIAIDRYIAIRIPLRYNGLVTGTRAKGIIAICWVLSFAIGLTPMLGWNNCGQPKEGKNHSQGCGEGQVACLFEDVVPMNYMVYFNFFACVLVPLLLMLGVYLRIFLAARRQLKQMESQPLPGERARSTLQKEVHAAKSLAIIVGLFALCWLPLHIINCFTFFCPDCSHAPLWLMYLAIVLSHTNSVVNPFIYAYRIREFRQTFRKIIRSHVLRQQEPFKAAGTSARVLAAHGSDGEQVSLRLNGHPPGVWANGSAPHPERRPNGYALGLVSGGSAQESQGNTGLPDVELLSHELKGVCPEPPGLDDPLAQDGAGVS	47.5 °C
GL14: A2AR mutant L48A-A236L (protein, UniProt P29274 1-412, looked up, variant L48A A236L) Adenosine receptor A2a: MPIMGSSVYITVELAIAVLAILGNVLVCWAVWLNSNLQNVTNYFVVSAAAADIAVGVLAIPFAITISTGFCAACHGCLFIACFVLVLTQSSIFSLLAIAIDRYIAIRIPLRYNGLVTGTRAKGIIAICWVLSFAIGLTPMLGWNNCGQPKEGKNHSQGCGEGQVACLFEDVVPMNYMVYFNFFACVLVPLLLMLGVYLRIFLAARRQLKQMESQPLPGERARSTLQKEVHAAKSLLIIVGLFALCWLPLHIINCFTFFCPDCSHAPLWLMYLAIVLSHTNSVVNPFIYAYRIREFRQTFRKIIRSHVLRQQEPFKAAGTSARVLAAHGSDGEQVSLRLNGHPPGVWANGSAPHPERRPNGYALGLVSGGSAQESQGNTGLPDVELLSHELKGVCPEPPGLDDPLAQDGAGVS	40.5 °C
GL11: A2AR mutant L48A-S90A (protein, UniProt P29274 1-412, looked up, variant L48A S90A) Adenosine receptor A2a: MPIMGSSVYITVELAIAVLAILGNVLVCWAVWLNSNLQNVTNYFVVSAAAADIAVGVLAIPFAITISTGFCAACHGCLFIACFVLVLTQASIFSLLAIAIDRYIAIRIPLRYNGLVTGTRAKGIIAICWVLSFAIGLTPMLGWNNCGQPKEGKNHSQGCGEGQVACLFEDVVPMNYMVYFNFFACVLVPLLLMLGVYLRIFLAARRQLKQMESQPLPGERARSTLQKEVHAAKSLAIIVGLFALCWLPLHIINCFTFFCPDCSHAPLWLMYLAIVLSHTNSVVNPFIYAYRIREFRQTFRKIIRSHVLRQQEPFKAAGTSARVLAAHGSDGEQVSLRLNGHPPGVWANGSAPHPERRPNGYALGLVSGGSAQESQGNTGLPDVELLSHELKGVCPEPPGLDDPLAQDGAGVS	46 °C
GL15: A2AR mutant L48A-I238A (protein, UniProt P29274 1-412, looked up, variant L48A I238A) Adenosine receptor A2a: MPIMGSSVYITVELAIAVLAILGNVLVCWAVWLNSNLQNVTNYFVVSAAAADIAVGVLAIPFAITISTGFCAACHGCLFIACFVLVLTQSSIFSLLAIAIDRYIAIRIPLRYNGLVTGTRAKGIIAICWVLSFAIGLTPMLGWNNCGQPKEGKNHSQGCGEGQVACLFEDVVPMNYMVYFNFFACVLVPLLLMLGVYLRIFLAARRQLKQMESQPLPGERARSTLQKEVHAAKSLAIAVGLFALCWLPLHIINCFTFFCPDCSHAPLWLMYLAIVLSHTNSVVNPFIYAYRIREFRQTFRKIIRSHVLRQQEPFKAAGTSARVLAAHGSDGEQVSLRLNGHPPGVWANGSAPHPERRPNGYALGLVSGGSAQESQGNTGLPDVELLSHELKGVCPEPPGLDDPLAQDGAGVS	42.5 °C
GL8: A2AR mutant L48A-F79A (protein, UniProt P29274 1-412, looked up, variant L48A F79A) Adenosine receptor A2a: MPIMGSSVYITVELAIAVLAILGNVLVCWAVWLNSNLQNVTNYFVVSAAAADIAVGVLAIPFAITISTGFCAACHGCLAIACFVLVLTQSSIFSLLAIAIDRYIAIRIPLRYNGLVTGTRAKGIIAICWVLSFAIGLTPMLGWNNCGQPKEGKNHSQGCGEGQVACLFEDVVPMNYMVYFNFFACVLVPLLLMLGVYLRIFLAARRQLKQMESQPLPGERARSTLQKEVHAAKSLAIIVGLFALCWLPLHIINCFTFFCPDCSHAPLWLMYLAIVLSHTNSVVNPFIYAYRIREFRQTFRKIIRSHVLRQQEPFKAAGTSARVLAAHGSDGEQVSLRLNGHPPGVWANGSAPHPERRPNGYALGLVSGGSAQESQGNTGLPDVELLSHELKGVCPEPPGLDDPLAQDGAGVS	45.5 °C

same assay, conditions: [3H]NECA bound; DDM; from Fig. 2c

Molecule	Improvement in stability compared to WT based on t1/2 (decrease in rate of unfolding)
GL10: A2AR mutant L48A-Q89A (protein, UniProt P29274 1-412, looked up, variant L48A Q89A) Adenosine receptor A2a: MPIMGSSVYITVELAIAVLAILGNVLVCWAVWLNSNLQNVTNYFVVSAAAADIAVGVLAIPFAITISTGFCAACHGCLFIACFVLVLTASSIFSLLAIAIDRYIAIRIPLRYNGLVTGTRAKGIIAICWVLSFAIGLTPMLGWNNCGQPKEGKNHSQGCGEGQVACLFEDVVPMNYMVYFNFFACVLVPLLLMLGVYLRIFLAARRQLKQMESQPLPGERARSTLQKEVHAAKSLAIIVGLFALCWLPLHIINCFTFFCPDCSHAPLWLMYLAIVLSHTNSVVNPFIYAYRIREFRQTFRKIIRSHVLRQQEPFKAAGTSARVLAAHGSDGEQVSLRLNGHPPGVWANGSAPHPERRPNGYALGLVSGGSAQESQGNTGLPDVELLSHELKGVCPEPPGLDDPLAQDGAGVS	136 fold
